T1: human CD30 (human, UniProt P28908 19-595)
T1 construct: The same molecule is used for CD30 on HL/ALCL/NHL cell lines; also called huCD30; TNFRSF8
T1 sequence: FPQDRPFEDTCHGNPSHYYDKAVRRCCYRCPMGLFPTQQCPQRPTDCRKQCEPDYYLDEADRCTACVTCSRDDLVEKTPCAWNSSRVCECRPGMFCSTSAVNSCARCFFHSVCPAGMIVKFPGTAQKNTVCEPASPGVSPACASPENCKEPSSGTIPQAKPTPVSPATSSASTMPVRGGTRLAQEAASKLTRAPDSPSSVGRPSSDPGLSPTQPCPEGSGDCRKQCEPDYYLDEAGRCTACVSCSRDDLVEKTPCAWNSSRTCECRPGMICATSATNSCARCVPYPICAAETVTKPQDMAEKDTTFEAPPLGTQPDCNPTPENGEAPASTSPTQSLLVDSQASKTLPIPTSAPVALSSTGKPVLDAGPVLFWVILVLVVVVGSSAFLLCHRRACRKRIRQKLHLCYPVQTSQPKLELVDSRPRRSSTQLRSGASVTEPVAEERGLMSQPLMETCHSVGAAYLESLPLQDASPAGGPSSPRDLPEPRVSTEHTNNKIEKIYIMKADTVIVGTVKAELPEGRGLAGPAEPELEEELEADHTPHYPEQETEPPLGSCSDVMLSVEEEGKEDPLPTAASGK

T2: cynomolgus monkey (Macaca fascicularis) CD30 (cynomolgus monkey, UniProt P28908 19-595 (human entry))
T2 construct: also called mfCD30
T2 chain: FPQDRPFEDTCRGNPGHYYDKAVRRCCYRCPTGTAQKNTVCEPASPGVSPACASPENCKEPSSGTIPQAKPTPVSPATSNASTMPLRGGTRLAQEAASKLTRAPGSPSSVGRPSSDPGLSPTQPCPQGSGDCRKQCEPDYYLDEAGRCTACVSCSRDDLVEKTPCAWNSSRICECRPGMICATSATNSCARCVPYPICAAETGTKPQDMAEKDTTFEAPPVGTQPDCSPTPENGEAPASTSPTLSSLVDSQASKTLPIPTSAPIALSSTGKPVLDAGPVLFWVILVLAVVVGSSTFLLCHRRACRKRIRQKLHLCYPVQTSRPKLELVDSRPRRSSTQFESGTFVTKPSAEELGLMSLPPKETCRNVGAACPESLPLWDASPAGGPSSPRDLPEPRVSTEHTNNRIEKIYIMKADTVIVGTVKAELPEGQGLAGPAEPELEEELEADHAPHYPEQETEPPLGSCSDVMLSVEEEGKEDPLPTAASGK


What was measured:
human CD30 [1] = biological target: T1, human CD30; experiment: flow cytometry, HDLM-2 cells, experiment N = 2
human CD30 [2] = biological target: T1, human CD30; experiment: flow cytometry, DEL cells, experiment N = 1
human CD30 [3] = biological target: T1, human CD30; experiment: flow cytometry, L-428 cells, experiment N = 2
human CD30 [4] = biological target: T1, human CD30; experiment: flow cytometry, L-428 cells, experiment N = 1
human CD30 [5] = biological target: T1, human CD30; experiment: flow cytometry, L-540 cells (HL), range of 3 tests
Protocol: (§1) Cells (3×10⁴ cells/well) were incubated in polystyrene 96-well round-bottom plates (Greiner bio-one, cat. no. 650180) with serial dilutions of antibodies (range 0.0046 to 10 μg/mL in 3-fold dilution steps) in 50 μL staining buffer at 4° C. for 30 min. After washing twice in staining buffer, cells were incubated with 50 μL secondary antibody at 4° C. for 30 min. […] Next, cells were washed twice in staining buffer, resuspended in 100 μL staining buffer supplemented with TO-PRO-3 iodide (Thermo Fisher Scientific; cat. no. T3605; 1:8000 dilution) and analyzed on a FACSCelesta flow cytometer (BD Biosciences, USA). Live cells were gated based on FSC/SSC and absence of TOPRO-3 staining. Binding curves were analyzed by non-linear regression of log-transformed data (sigmoidal dose-response with variable slope, four parameters) using GraphPad Prism V7.02 software (GraphPad Software, San Diego, CA, USA).

human CD30 [6] = biological target: T1, human CD30; experiment: flow cytometry, SR-786 cells (ALCL), average of 3 tests
Protocol: as §1

human CD30 [7] = biological target: T1, human CD30; experiment: flow cytometry, SUP-T1 cells (TLL), range of 2 tests
Protocol: as §1

human CD30 [8] = biological target: T1, human CD30; experiment: flow cytometry, JVM-2 cells (MCL), range of 3 tests
Protocol: as §1

human CD30 [9] = biological target: T1, human CD30; experiment: flow cytometry, L-1236 cells (HL), average of 3 tests
Protocol: as §1

human CD30 [10] = biological target: T1, human CD30; experiment: flow cytometry, L-428 cells (HL), average of 2 tests
Protocol: as §1

human CD30 [11] = biological target: T1, human CD30; experiment: flow cytometry, DEL cells (ALCL), average of 3 tests
Protocol: as §1

human CD30 [12] = biological target: T1, human CD30; experiment: flow cytometry, HDLM-2 cells (HL), range of 3 tests
Protocol: as §1

[13] = biological target: T2, cynomolgus monkey (Macaca fascicularis) …; experiment: flow cytometry, HEK293 cells transfected with mfCD30
Protocol: (§2) Cells (3×10⁴ cells/well) were incubated in polystyrene 96-well round-bottom plates (Thermo Scientific, cat. no. 163320) with serial dilutions of antibodies (ranging from 0.0002 to 50 μg/mL in 4-fold dilution steps) in 50 μL staining buffer at 4° C. for 30 min. Experiments were performed in technical duplicate. After washing twice in staining buffer, cells were incubated in 50 μL secondary antibody at 4° C. for 30 min. As a secondary antibody, R-PE-conjugated goat-anti-human IgG (Jackson ImmunoResearch, UK; cat. no. 109⁻¹¹⁶-098) diluted 1:200 in staining buffer was used. Cells were washed twice in staining buffer, resuspended in 30 μL staining buffer containing 0.4% EDTA and the ToPro-3 viability marker (Invitrogen, cat. no. T3605) diluted 1:10,000. Cells were analyzed on an iQue Screener (Intellicyt Corporation, USA). Binding curves were analyzed using non-linear regression (sigmoidal dose-response with variable slope) using GraphPad Prism V9.0.0 software (GraphPad Software, San Diego, CA, USA).

human CD30 [14] = biological target: T1, human CD30; experiment: flow cytometry, HEK293 cells transfected with human CD30
Protocol: as §2

| Binder | EC50 (human CD30 [1]) | EC50 (human CD30 [2]) | EC50 (human CD30 [3]) | EC50 (human CD30 [4]) | EC50 (human CD30 [5]) | EC50 (human CD30 [6]) | EC50 (human CD30 [7]) | EC50 (human CD30 [8]) | EC50 (human CD30 [9]) | EC50 (human CD30 [10]) | EC50 (human CD30 [11]) | EC50 (human CD30 [12]) | binding result [13] | EC50 (read off the curve) (human CD30 [14]) |
| --- | --- | --- | --- | --- | --- | --- | --- | --- | --- | --- | --- | --- | --- | --- |
| bsG1-huCD3-FEALxCD30-MDX060-FEAR (bispecific antibody, human IgG1, kappa, lambda, also called bsG1-huCD3xCD30-MDX060) heavy 1: not shown light 1: not shown heavy 2: QVQLQQWGAGLLKPSETLSLTCAVYGGSFSAYYWSWIRQPPGKGLEWIGDINHGGGTNYNPSLKSRVTISVDTSKNQFSLKLNSVTAADTAVYYCASLTAYWGQGSLVTVSSASTKGPSVFPLAPSSKSTSGGTAALGCLVKDYFPEPVTVSWNSGALTSGVHTFPAVLQSSGLYSLSSVVTVPSSSLGTQTYICNVNHKPSNTKVDKRVEPKSCDKTHTCPPCPAPEFEGGPSVFLFPPKPKDTLMISRTPEVTCVVVAVSHEDPEVKFNWYVDGVEVHNAKTKPREEQYNSTYRVVSVLTVLHQDWLNGKEYKCKVSNKALPAPIEKTISKAKGQPREPQVYTLPPSREEMTKNQVSLTCLVKGFYPSDIAVEWESNGQPENNYKTTPPVLDSDGSFFLYSRLTVDKSRWQQGNVFSCSVMHEALHNHYTQKSLSLSPG light 2: DIQMTQSPTSLSASVGDRVTITCRASQGISSWLTWYQQKPEKAPKSLIYAASSLQSGVPSRFSGSGSGTDFTLTISSLQPEDFATYYCQQYDSYPITFGQGTRLEIKRTVAAPSVFIFPPSDEQLKSGTASVVCLLNNFYPREAKVQWKVDNALQSGNSQESVTEQDSKDSTYSLSSTLTLSKADYEKHKVYACEVTHQGLSSPVTKSFNRGEC | 0.12 µg/mL | 0.302 µg/mL | 0.0705 µg/mL | 0.154 µg/mL | – | – | – | – | – | – | – | – | – | – |
| bsG1-huCD3-FEALxCD30-MDX060-FERR (bispecific antibody, human IgG1, kappa, lambda, Bispecific IgG1 made by controlled Fab-arm exchange; also called bsIgG1-huCD3-FEALxCD30-MDX060-FERR; bsG1-huCD3×CD30-MDX060) heavy 1: not shown light 1: not shown heavy 2: QVQLQQWGAGLLKPSETLSLTCAVYGGSFSAYYWSWIRQPPGKGLEWIGDINHGGGTNYNPSLKSRVTISVDTSKNQFSLKLNSVTAADTAVYYCASLTAYWGQGSLVTVSSASTKGPSVFPLAPSSKSTSGGTAALGCLVKDYFPEPVTVSWNSGALTSGVHTFPAVLQSSGLYSLSSVVTVPSSSLGTQTYICNVNHKPSNTKVDKRVEPKSCDKTHTCPPCPAPEFERGPSVFLFPPKPKDTLMISRTPEVTCVVVDVSHEDPEVKFNWYVDGVEVHNAKTKPREEQYNSTYRVVSVLTVLHQDWLNGKEYKCKVSNKALPAPIEKTISKAKGQPREPQVYTLPPSREEMTKNQVSLTCLVKGFYPSDIAVEWESNGQPENNYKTTPPVLDSDGSFFLYSRLTVDKSRWQQGNVFSCSVMHEALHNHYTQKSLSLSPG light 2: DIQMTQSPTSLSASVGDRVTITCRASQGISSWLTWYQQKPEKAPKSLIYAASSLQSGVPSRFSGSGSGTDFTLTISSLQPEDFATYYCQQYDSYPITFGQGTRLEIKRTVAAPSVFIFPPSDEQLKSGTASVVCLLNNFYPREAKVQWKVDNALQSGNSQESVTEQDSKDSTYSLSSTLTLSKADYEKHKVYACEVTHQGLSSPVTKSFNRGEC | – | – | – | – | 0.202 to 0.469 µg/mL | 0.328 µg/mL | 0.257 to 0.434 µg/mL | 0.107 to 0.141 µg/mL | 0.202 µg/mL | 0.174 µg/mL | 0.201 µg/mL | 0.125 to 0.221 µg/mL | binds | ~0.1 µg/mL |
